For one molecule, FXII activation relative to hPEPD, chromogenic assay (mutant 40 and 400 nM, FXII 0.97 nM, ZnCl2-containing PBS, RT) results are on record in publication PMC5173032.

This test has as its target human coagulation factor XII (purchased, not His-tagged) (human).

B1: 1M-265Rdel-hPEPD (domain or fragment)
chain: TIQNGDMCLFDMGGEYYCFASDITCSFPANGKFTADQKAVYEAVLRSSRAVMGAMKPGVWWPDMHRLADRIHLEELAHMGILSGSVDAMVQAHLGAVFMPHGLGHFLGIDVHDVGGYPEGVERIDEPGLRSLRTARHLQPGMVLTVEPGIYFIDHLLDEALADPARASFLNREVLQRFRGFGGVRIEEDVVVTDSGIELLTCVPRTVEEIEACMAGCDKAFTPFSGPK
With B1, the FXII activation relative to hPEPD, chromogenic assay (mutant 40 and 400 nM, FXII 0.97 nM, ZnCl2-containing PBS, RT) is 50%.
